Data: patent US12466859B2, “Desmoglein 2 (DSG2) binding proteins and uses therefor” (UNIVERSITY OF WASHINGTON THROUGH ITS CENTER FOR …, priority 2013, dated 2025)
Changes are numbered by the printed parent chain. Names and notes keep the numbering of the source. “Also recorded” adds a separate entry of the source.

Key:
soluble recombinant DSG2 = target: T1, soluble recombinant DSG2 (Homo sapiens, UniProt Q14126); assay: Western blot of dimeric Ad3 fiber knob mutants with soluble recombinant DSG2 as probe; assay type: binding; conditions: dimerized knob mutants compared to JO-1
T1 construct: Western blot using soluble recombinant DSG2 as a probe; purchased Leinco Technologies, Inc. (St. Louis, MO)
T1 sequence (Q14126 50-609 limits assumed): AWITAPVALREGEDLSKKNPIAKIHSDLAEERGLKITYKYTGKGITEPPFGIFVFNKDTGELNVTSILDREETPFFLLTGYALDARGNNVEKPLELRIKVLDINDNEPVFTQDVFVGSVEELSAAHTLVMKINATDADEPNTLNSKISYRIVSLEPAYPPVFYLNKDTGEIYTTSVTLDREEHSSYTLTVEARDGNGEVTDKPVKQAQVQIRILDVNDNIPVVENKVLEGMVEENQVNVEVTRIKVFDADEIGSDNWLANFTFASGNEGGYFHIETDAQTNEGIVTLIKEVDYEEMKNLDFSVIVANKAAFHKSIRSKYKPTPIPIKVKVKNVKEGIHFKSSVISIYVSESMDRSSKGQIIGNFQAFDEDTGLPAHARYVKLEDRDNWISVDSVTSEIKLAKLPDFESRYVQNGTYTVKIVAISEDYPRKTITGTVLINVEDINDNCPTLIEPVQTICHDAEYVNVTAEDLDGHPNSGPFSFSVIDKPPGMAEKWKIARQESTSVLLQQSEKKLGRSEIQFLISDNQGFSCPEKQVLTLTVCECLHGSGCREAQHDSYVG
Description: FIG. 1A-1F. Residues found to be critically involved in binding to DSG2. FIG. 1A) Shown are the amino acid sequences of the Ad3 and Ad14p1 fiber knob. Beta sheets present in the Ad3 knob (PDB accession number 1H7Z_A) and Ad14 knob (PDB: 3F0Y_A) are indicated by lines. Black arrows indicate residues within the Ad3 fiber knob which, when mutated individually, ablate or reduce binding to DSG2. […] FIG. 1B) Schematic structure of dimeric Ad3 fiber knob mutants. The fiber knob domain and one shaft motif was fused through a flexible linker to a homodimerizing K-coil domain (41). The proteins are self-dimerizing and can be purified by His-Ni-NTA affinity chromatography. FIG. 1C-FIG. 1F) Analysis of binding of dimeric Ad3 fiber knob mutants to soluble DSG2. FIG. 1C and FIG. 1D) Coomassie staining. 10 μg of purified Ad3 fiber knob (unboiled) were loaded per lane. Trimeric forms of the fiber knobs are indicated by an arrow. The gel contained SDS and the loading buffer containing DTT, which caused the disassembly of dimers of trimeric fiber knobs as previously reported (41). FIG. 1E and FIG. 1F): Western blot using soluble recombinant DSG2 as a probe, followed by anti-DSG2-mAb and anti-mouse IgG-HRP. For comparison, JO-1 (0.5 μg/lane) is shown. The Western blots were scanned and signals were quantified.
Western Blot: Mini-PROTEAN precast gels (BIO-RAD, Hercules, CA) with 4-15% gradient polyacrylamide were used. A total of 1 μg protein mixed with 2× loading buffer (10 mM Tris-HCl, pH6.8, 200 mM DTT, 4% SDS, 20% glycerol, 0.2% bromophenol blue) was loaded per lane. Samples were either boiled (B) for 5 min or loaded unboiled (UB). The following running buffer was used: 25 mM Tris, pH8.3, 0.192 M glycine, 0.1% SDS. After electrophoresis, proteins were transferred to nitrocellulose and incubated with recombinant human DSG2 protein and anti-DSG2 antibodies as described previously (42). The Western blots were scanned and quantified using the ImageJ 1.32 software (National Institutes of Health, Bethesda, MD). JO-1 band intensity was set as 100%. […]

TNBC MDA-MB-231 tumors = assay: Enhancement of nab-paclitaxel/cetuximab therapy in orthotopic TNBC MDA-MB-231 tumors; assay type: in vivo, CB17 SCID-beige mice; conditions: 2 mg/kg i.v. 1 hour before cetuximab 10 mg/kg i.p. and nab-paclitaxel 5 mg/kg i.v., weekly
Description: FIG. 10A-10C. Combination of affinity-enhanced JO-1 versions with chemotherapy. FIG. 10A) Enhancement of irinotecan (I) therapy. The experimental setting was the same as in FIG. 5B. […] N=5. […] Mammary fat pad tumors were established from primary ovarian cancer ovc316 cells. Treatment was started when tumors reached a volume of 100 mm^3. Mice were injected intravenously with 2 mg/kg JO-1 or with 0.5 mg/kg JO-4, followed by an intravenous injection of PEGylated liposomal doxorubicin (PLD) (1 mg/kg) one hour later. Treatment was repeated weekly. […] A total of 4×10^6 TNBC MDA-MB-231 cells were injected into the mammary fat pad of CB17 SCID-beige mice. JO-4 (2 mg/kg) was intravenously injected 1 hour before the application of cetuximab (C) (10 mg/kg, i.p.) and nab-paclitaxel (nab-P) (5 mg/kg, i.v.). Treatment was given weekly. N=10 P<0.01 at day 25 for nab-P+C vs JO-4+nab-P+C.
A549, MDA-MB-231, and ovc316 xenograft tumors were established by injection of the corresponding tumor cells into the mammary fat pad (1:1 with Matrigel) of CB17 mice. TC1-DSG2 tumors were established by subcutaneous injection of TC1-DSG2 cells into DSG2 transgenic mice. […] Tumor volumes were measured three times a week. […]

B1: D261N (protein)
chain: MKVSALKEKVSALKEKVSALKEKVSALKEKVSALKEGSGGGSGGGSGGGSNSIALKNNTLWTGPKPEANCIIEYGKQNPDSKLTLILVKNGGIVNGYVTLMGASDYVNTLFKNKNVSINVELYFDATGHILPDSSSLKTDLELKYKQTADFSARGFMPSTTAYPFVLPNAGTHNENYIFGQCYYKASNGALFPLEVTVMLNKRLPDSRTSYVMTFLWSLNAGLAPETTQATLITSPFTFSYIREDD
Q: Which “DSG2 binding in Western blot, in words” value (soluble recombinant DSG2) does the source give for B1 here?
A: The value was “almost completely ablated”.

B2: JO-4 (protein)
chain: B1 chain with Y177F, N188D
Q: B2 was tested. Which “Enhancement of nab-paclitaxel/cetuximab therapy” value (TNBC MDA-MB-231 tumors) did it give?
A: The value was “significantly increased; also recorded: enhances therapy”.
